# From article doi:10.1101/2022.03.21.484600 (bioRxiv, 2022)
# What was measured:
# [1] = target: the molecule itself; test: pelleting by centrifugation + negative staining TEM
# [2] = target: the molecule itself; test: circular dichroism of fibrils collected by centrifugation
# SEC = target: the molecule itself; test: SEC
# pelleting assay = target: the molecule itself; test: pelleting assay
# [3] = target: the molecule itself; test: fibril formation seen by negative staining TEM
protein,measurement,setting,value
AREAEAAIYRLQLFEELRRLA [PKM2 amyloid core centre peptide H391R (amino acids 382-402)],binding result,[1],binds
"TSTTETVAASAVAAVFE [Cdc19 amyloid core peptide, wild type (amino acids 376-392)]",binding result,[2],binds
"TSTTATVAASAVAAVFA [Cdc19 amyloid core peptide, E380A E392A]",binding result,[2],binds
"Purified full-length Cdc19, wild type (enzyme) MSRLERLTSLNVVAGSDLRRTSIIGTIGPKTNNPETLVALRKAGLNIVRMNFSHGSYEYHKSVIDNARKSEELYPGRPLAIALDTKGPEIRTGTTTNDVDYPIPPNHEMIFTTDDKYAKACDDKIMYVDYKNITKVISAGRIIYVDDGVLSFQVLEVVDDKTLKVKALNAGKICSHKGVNLPGTDVDLPALSEKDKEDLRFGVKNGVHMVFASFIRTANDVLTIREVLGEQGKDVKIIVKIENQQGVNNFDEILKVTDGVMVARGDLGIEIPAPEVLAVQKKLIAKSNLAGKPVICATQMLESMTYNPRPTRAEVSDVGNAILDGADCVMLSGETAKGNYPINAVTTMAETAVIAEQAIAYLPNYDDMRNCTPKPTSTTETVAASAVAAVFEQKAKAIIVLSTSGTTPRLVSKYRPNCPIILVTRCPRAARFSHLYRGVFPFVFEKEPVSDWTDDVEARINFGIEKAKEFGILKKGDTYVSIQGFKAGAGHSNTLQVSTV",stoichiometry N,SEC,4
Purified full-length PKM2 H391R (enzyme) not shown,binding result,pelleting assay,binds
"TSTTQTVAASAVAAVFQ [Cdc19 amyloid core peptide, E380Q E392Q]",binding result,[3],binds
"AREAEAAIYHLQLFEELRRLA [PKM2 amyloid core centre peptide, wild type (amino acids 382-402)]",binding result,[1],binds
